Experimental data taken from publication PMC4399498 (Nature communications, 2014).

Key:
KdpE-E216A = molecular target: T1, KdpE-E216A (Escherichia coli, UniProt P21866 1-225, E216A); test: fluorescence anisotropy
T1 sequence: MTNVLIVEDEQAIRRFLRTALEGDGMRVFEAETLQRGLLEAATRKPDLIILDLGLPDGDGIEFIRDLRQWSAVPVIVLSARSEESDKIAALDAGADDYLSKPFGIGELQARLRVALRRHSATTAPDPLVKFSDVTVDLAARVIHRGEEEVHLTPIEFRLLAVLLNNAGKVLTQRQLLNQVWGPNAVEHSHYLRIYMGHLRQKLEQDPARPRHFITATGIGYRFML

KdpE = molecular target: T2, KdpE (Escherichia coli, UniProt P21866 1-225); test: fluorescence anisotropy
T2 sequence: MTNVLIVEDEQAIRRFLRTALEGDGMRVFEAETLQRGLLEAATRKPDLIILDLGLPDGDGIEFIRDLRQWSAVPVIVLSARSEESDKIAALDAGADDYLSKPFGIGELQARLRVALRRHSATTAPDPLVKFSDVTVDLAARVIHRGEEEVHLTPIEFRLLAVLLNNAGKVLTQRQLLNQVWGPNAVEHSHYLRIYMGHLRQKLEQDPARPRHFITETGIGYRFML

B1: 24-bp KdpE site DNA, TAMRA (anisotropy) (dsDNA)
DNA 1: CATTTTTATACTTTTTTTACACCC
DNA 2: GGGTGTAAAAAAAGTATAAAAATG
- Kd (KdpE-E216A): 3.5 ± 0.5 nM
- Kd (KdpE): 30 ± 4 nM
